Test results reported in patent publication US20230303695A1 (SHANGHAI XBH BIOTECHNOLOGY, published 2023).

T1: recombinant human IGSF8 extracellular domain tagged by a human Fc region (IGSF8-hFc) (human, UniProt Q969P0 28-579, biotin label in Examples 17, 18 and 28 (site not given))
T1 construct: also called IGSF8-Fc fusion protein; IGSF8-hFc-biotin; not shown: human Fc region
T1 sequence: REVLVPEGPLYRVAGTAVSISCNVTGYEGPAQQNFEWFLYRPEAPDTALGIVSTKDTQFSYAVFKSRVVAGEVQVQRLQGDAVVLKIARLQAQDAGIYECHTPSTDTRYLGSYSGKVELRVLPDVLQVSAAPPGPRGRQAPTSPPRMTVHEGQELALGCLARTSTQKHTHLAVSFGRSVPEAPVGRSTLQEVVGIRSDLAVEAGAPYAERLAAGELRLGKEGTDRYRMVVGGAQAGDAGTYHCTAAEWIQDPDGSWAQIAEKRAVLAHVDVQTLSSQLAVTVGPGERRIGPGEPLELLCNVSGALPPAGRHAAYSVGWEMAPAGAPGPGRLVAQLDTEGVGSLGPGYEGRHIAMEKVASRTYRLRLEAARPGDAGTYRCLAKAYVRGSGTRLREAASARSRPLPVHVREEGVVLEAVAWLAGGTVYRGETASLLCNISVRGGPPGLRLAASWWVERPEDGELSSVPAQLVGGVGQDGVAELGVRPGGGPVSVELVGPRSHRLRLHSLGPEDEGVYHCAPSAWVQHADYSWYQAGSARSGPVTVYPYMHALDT


Target: T1, recombinant human IGSF8 extracellular …
Assay: SPR, Ab captured
Description: The binding affinities of the L1 and L2 antibodies to IGSF8 recombinant protein were determined by surface plasmon resonance (SPR). Briefly, anti-human Fab antibody was imobilized on acarboxyl-derivatized SPR chip surface, and the antibodies were captured on the resulting surface at 5 μg/ml for 30 seconds.

Binder	Kd	koff	kon
L2-08 (antibody, V domains shown) VH: EVQLVESGGGLEQPGGSLRLSCAASGFTFRDYAMTWVRQAPGKGLEWVSSISGSGGSTYYADSVKGRFTISRDNSKNTLYLQMNSLRAEDTAIYYCARGEYSSGWPSWFDPWGQGTLVTVSS VL: DIQMTQSPSSLSASVGDRVTITCRASRTVGTFLNWYQQKPGKAPKALILGVSILEGGVPSRFSGSGSGTDFTLTISSLQPEDIATYYCQQSHDVPRTFGQGTKVEIK	0.869 nM	0.000112 s⁻¹	129000 M⁻¹ s⁻¹
L2-05 (antibody, V domains shown) VH: EVQLVESGGGLEQPGGSLRLSCAASGFTFRDYAMTWVRQAPGKGLEWVSAISGSGGSTYYADSVKGRFTISRDNSKNTLYLQMNSLRAEDTAIYYCARGEYSSGWPSWFDPWGQGTLVTVSS VL: EIVLTQSPSSLSASVGDRVTISCRASRTVGTFLNWYQQRPGKPPQALILGVSILEGGVSSRFSGAGSGTEFSLTISSLQPEDIGTYYCQQSHDVPRTFGQGTKVDLR	2.63 nM	0.000112 s⁻¹	42700 M⁻¹ s⁻¹
L2-02 (antibody, V domains shown) VH: EVQLVESGGGLEQPGGSLRLSCAGSGFTFRDYAMTWVRQAPGKGLEWVSSISGSGGNTYYADSVKGRFTISRDNSKNTLYLQMNSLRAEDTAIYYCARGEYSSGWPSWFDPWGQGTLVTVSS VL: EIVLTQSPSSLSASVGDRVTISCRASRTVGTFLNWYQQRPGKPPQALILHTSILEGGVSSRFSGAGSGTEFSLTISSLQPEDIGTYYCQQSHDVPRTFGQGTKVDLR	4.85 nM	0.000131 s⁻¹	27100 M⁻¹ s⁻¹
L2-09 (antibody, V domains shown) VH: EVQLVESGGGLEQPGGSLRLSCAASGFTFRDYAMTWVRQAPGKGLEWVSSISGSGGSTYYADSVKGRFTISRDNSKNTLYLQMNSLRAEDTAIYYCARGEYSSGWPSWFDPWGQGTLVTVSS VL: DIQMTQSPSSLSASVGDRVTITCRASRTVGTFLNWYQQKPGKAPKALILHTSILEGGVPSRFSGSGSGTDFTLTISSLQPEDIGTYYCQQSHDVPRTFGQGTKVEIK	0.475 nM	7.15e-05 s⁻¹	151000 M⁻¹ s⁻¹

Further lines, results first:

Kd	koff	kon	Binder
2.98 nM	0.000142 s⁻¹	47600 M⁻¹ s⁻¹	L2-04 (antibody, V domains shown) VH: EVQLVESGGGLEQPGGSLRLSCAASGFTFRDYAMTWVRQAPGKGLEWVSSISGSGGSTYYADSVKGRFTISRDNSKNTLYLQMNSLRAEDTAIYYCARGEYSSGWPSWFDPWGQGTLVTVSS VL: EIVLTQSPSSLSASVGDRVTISCRASRTVGTFLNWYQQRPGKPPQALILGVSILEGGVSSRFSGAGSGTEFSLTISSLQPEDIGTYYCQQSHDVPRTFGQGTKVDLR
5.45 nM	0.000249 s⁻¹	45700 M⁻¹ s⁻¹	L2-06 (antibody, V domains shown) VH: EVQLVESGGGLEQPGGSLRLSCAASGFTFRDYAMTWVRQAPGKGLEWVSSISGSGGSTYYADSVKGRFTISRDNSKNTLYLQMNSLRAEDTAIYYCARGEYSSGWPSWFDPWGQGTLVTVSS VL: DIQMTQSPSSLSASVGDRVTITCRASRTVGTFLNWYQQKPGKAPKALILGVSILEGGVPSRFSGSGSGTDFTLTISSLQLEDFATYYCQQSHDVPRTFGQGTKVEIK
1.16 nM	0.000129 s⁻¹	111000 M⁻¹ s⁻¹	L2-07 (antibody, V domains shown) VH: EVQLVESGGGLEQPGGSLRLSCAASGFTFRDYAMTWVRQAPGKGLEWVSSISGSGGSTYYADSVKGRFTISRDNSKNTLYLQMNSLRAEDTAIYYCARGEYSSGWPSWFDPWGQGTLVTVSS VL: DIQMTQSPSSLSASVGDRVTITCRASRTVGTFLNWYQQKPGKAPKALILGVSILEGGVPSRFSGSGSGTDFTLTISSLQPEDIGTYYCQQSHDVPRTFGQGTKVEIK
3.27 nM	0.000465 s⁻¹	142000 M⁻¹ s⁻¹	L2-03 (antibody, V domains shown) VH: EVQLVESGGGLEQPGGSLRLSCAGSGFTFRDYAMTWVRQAPGKGLEWVSSISGSGGSTYYADSVKGRFTISRDNSKNTLYLQMNSLRAEDTAIYYCARGEYSSGWPSWFDPWGQGTLVTVSS VL: EIVLTQSPSSLSASVGDRVTISCRASRTVGTFLNWYQQRPGKPPQALILGVSILEGGVSSRFSGAGSGTEFSLTISSLQPEDIGTYYCQQSHDVPRTFGQGTKVDLR
